test: soluble on expression in E. coli; label from the status in PepcDB or PDB records

Sequence | soluble on expression in E. coli
MSLGDERPDVLLTGLLFYDLVLTGLGKPPTPGEEIWTEGMGVSPGGIANLAVAASRFGLRTSLATVFGDDHYGAYCRGVLAGQEGIDLSLSRTADGWHTPVTVSLAYGHDRALVTHGQDPPYSQDALMGDPPEARTALVHIEAEPHAWLAKAAANGTRIYADVGWDPTQQWSRDLLDQLSLCHAFLPNEAEAMAYTRTDSAMAALGTLTDLVPVAVVTRGGDGAVAVDQTTGEYAEVPALDIDVLDPTGAGDVFGASFVAASLGGWPLAERLRFAVLAAGLSVQRHGGALAAPGWYGVHRWWHSLEDPGLRRAYGFLADRIPADPGPPVRHAPVTPPDATRREGHHHHHH | soluble
MSLGEFVFKGLLQEKGWIENAVVKTNDFGVITSIKSDPERKDGCDYAIPGFQNAHSHAFQYAMAGLAELHSTSKTKNDFWSWRKIMYDLALNITPDQMEDIATMLYKEMLRHGYTHVAEFHYLHHDLSGEKYNNCSEMGERIIAAAKRAGIKLTLVPIFYQNGGFGRKAENEQRRFISSSFNDYKNLVEASISSSKNYEHSSVAYGIHSMRAVSAENIIKLSEQKENGAPFHIHVSEQLKEIEDSVAFLGLRPVDWLSENIDLNPDYHLVHATHLTQNEIESIAKSQANVVLCPSTEGNLGDGIFPLNEFLKHGGKWSIGTDSHVGLNPFEELRILDYGQRLISHNRNTFGNNISGDNGNIAISSALVNGRKAMGIEQTHYFEVGKSFDALIISDQHPLIQTVSLKNLTNTLVYSSDNSMYKGTIVNGDWKIKDGQHADDNIHADFIQTLNALKVREGHHHHHH | soluble
MSLGEKMAIWRTKKPATKQKIVSDLQELGIKKGDTIIFHASMSKAHWICGGPVTVILALQELVGELGNIVMPAQTGQLSDPAKWENPPVPESWWKIIRRETPPFDPLVTPTRGMGVIAETFRTMPDVERSFHPYHSFCAWGKDKKQILANQPLAKSMGDESPLGKMYQLDAKIILFGVDNNNNTSLHLAEERSNAFPLIENQAAFLKNGEIIWEKYQEIDYNSEVFIALGRAYEKEHDFHPTTIIGAPTKIYDMRDLVDFGTKYFQTKNHEGHHHHHH | soluble
MSLGGDNAEYGYVEQTHPAFIAGSFTTEKNAKSRYYLLAKYEMTVLQYSALTQAECPAPSNKQRLPVVSLSWMQAMEAADKYNIWLRENAADKLPKEDGVAGFLRLPTEVEWEFAARGGLNVSTAEFRDLRYPMPEGVNAYEWFAGTQSANGQLQLSGLLKPNPLGLHDMLGNVDEMMFEPFRLNKLDRQHGQAGGYVVRGGDFRTAQGELRSSLRKERNYYDAKAAATSKTTGVRLALASSTLTSRERVSSIETSWKKLGTGSGDTSQGEDKSAVQALGTLASGVADEALKEKLKALENQLRASNQQQEETRDQAIRASLNLGAFLCTKMLDDGKYLDFLQKNYALNCSAAEQDASCPMRKGKLDEQKDRLHKLSRYYASSLVDSATLYGEPLLARQIPVMGEIISRNEQLKELKPYLQTHWVNQQAFLKTQKIDTDAWLNRCKAVQEGHHHHHH | not soluble
MSLGIRGLDLSDLFVSGASYKRLGSEEMMRSTFQKLDREIAAIFLGLSDGTISKAIEYSKVRTAFDHPLKDYSPIFDDLVSLKMEIDVLRFYLYGSGDEYSRALIKIKAKDLSLRATRVSLQTHGGYGYIHDFGIEKYYRDAMALSVYFGQDKYENMVLSDHIFGEAGGEGHHHHHH | not soluble
MSLGIYMRDDILDIITLTTDFGTNEGYVGAMKGRILNILKKYNKDAKIIDISHEIKPFNIYHGAYVLLTAIPYFPPSVHVAVIDPTVGSERKSIVIETKSGYYLVGPDNGLFTYVAEKLGIKRIIKIDEERYKPSSTFHGRDVYAVVGAEILINNGYDGEELDEMVKIDETKKRVIHIDRFGNIITNIKKDEVTFKYYDTIMIKIRHKNGIEKIIKCKFVKSYFEEKNNFICLINSEGFLEISKFMDNASKLLNVDYLDEIEIEGGSHHHHHH | soluble
MSLGLIRAQPKSGYYVSNHAIKQLASKTTPVPEQASTVVSISDMVFSILSSIKDPETVPLGSAFPWPDLFPLARLSRSLAHATRDMGPAAIVESLPPGNHDLRRQIARRYLMQGVEADVDNILITNGAFEALNLCLEAVTQPGDLVAIESPTFHGCLQALERLQLKAVEIPVDPVLGMDLDYLESVLEKCPVRACWSMTSFQNPMGVSMPAERKQVLVELLTRYRIPLIEDDVYGELYFGMQEHRPAKAYDSEGYVMHCSSFSKTLAPGYRIGWALLPKRFERKVERLKVITSLSTSTIAQAAIADFLQHGGYDRHLRRLRTKFELQQHQYLHLIARYFPAETQVTRPHGGYFLWVDLPERVDALVLFQRALEQGVSVAPGPIFSARHQCCNCIRINYSKPVDAEVEQAFKTLGRLMSSIEAEGHHHHHH | soluble
MSLGMASHPPIPILELADHIERLKANDNLKFSQEYESIDPGQQFTWEHSNLEVNKPKNRYANVIAYDHSRVLLSAIEGIPGSDYVNANYIDGYRKQNAYIATQGSLPETFGDFWRMIWEQRSATVVMMTKLEERSRVKCDQYWPSRGTETHGLVQVTLLDTVELATYCVRTFALYKNGSSEKREVRQFQFTAWPDHGVPEHPTPFLAFLRRVKTCNPPDAGPMVVHCSAGVGRTGCFIVIDAMLERIKHEKTVDIYGHVTLMRAQRNYMVQTEDQYIFIHDALLEAVTCGNTEVPARNLYAYIQKLTQIETGENVTGMELEFKRLEGHHHHHH | soluble
MSLGNAPLPFDVGGPFELTDQHGARRSQADPQGHGQLLFFGYATCPGICSAAMPMMADAVDRLAEAGIPVTPVMITVDPERDRPGEMNAPLARYHPDFIGLTGSEAELQAAYSAYSVERELAYVDPEYGPVYTHGAFIYLLDAKGEVLSLFPPILSSDRVVELARKYLGSEGEGHHHHHH | soluble
MSLGQDGFRLADYIREHVENGDKLVIRVSYHNTSLGFANPMREGVEKAKRELGVDAELIGPANGSAQEQVSELQTLISQQKVDGLAVSSASNDALKPVIAQAYNAGIPIISFNTNNPGSKQMAFVGQDLVQSGRFEAEQLRKELGDRKGKVVVFSVDTGAGWSNDRFSGFEAGMEGAEGIQIEGPINSGNEPRQAFNAVQNTMTANPDAIAIASLDCCSVDAAAKWVQQNGKKGEIIVVGFDVLPQTADFIRNGVIQFTISQNPVEQGYQSVKILNDFLKKNKPLRDVNTGTKLVDKSNIDEVPLEEGHHHHHH | soluble
MSLGQEEAGKLLDSLAEPSKKAYRINSLKEGAVVYPQEEAVPGIPNAYYGEVSGKDPEWTAGLVYSQDPAAMFPAQAIPVKPGDKVLDLCAAPGGKSTALAQKLQGEGLLVANEISPSRAKILRENLERWGVSNAVVTNCDSFALSARFPGFFDAILVDAPCSGEGMFRKSEDAIKYWSQENVDLCADRQREILTEAVKMLKPGGYLLYSTCTFSPEEDEEIVSWLLDEYGFKLLPIAAEKAAPGRPEWGNGDASLANCARFWPQDGVGEGQFVASLQKAAGEESFAAEAGEVFSPVRKNKDKKKKGKGKNKGNRSSLERPSKEESCYISEAIAGFNWPESLASWPSQMLKSQDHVFVPALEPEQLKGIKVLSNGLELGILKKKRFEPSHQLAEVLGQVDQERVVDLTEEEYDHYLHGESLQVNSSLKGFVLVSCRGMIFSFGKLSGKGQLKNYYPKGLRQKGIITITTDPNSSSVDKLAAALEHHHHHH | soluble
MSLGRFVRHALITAGTKGLGKQVTEKLLAKGYSVTVTYHSDTTAMETMKETYKDVEERLQFVQADVTKKEDLHKIVEEAMSHFGKIDFLINNAGPYVFERKKLVDYEEDEWNEMIQGNLTAVFHLLKLVVPVMRKQNFGRIINYGFQGADSAPGWIYRSAFAAAKVGLVSLTKTVAYEEAEYGITANMVCPGDIIGEMKEATIQEARQLKEHNTPIGRSGTGEDIARTISFLCEDDSDMITGTIIEVTGAVDVIHREGHHHHHH | soluble
MSLGRIGLRKLLQRIGIVAESMTPLATDPVEVTQLLDARWYDERLRALADELGRDPDSVRAEAAGYLREMAASLDERAVQAWRGFSRWLMRAYDVLVDEDQITQLRKLDRKATLAFAFSHRSYLDGMLLPEAILANRLSPALTFGGANLNFFPMGAWAKRTGAIFIRRQTKDIPVYRFVLRAYAAQLVQNHVNLTWSIEGGRTRTGKLRPPVFGILRYITDAVDEIDGPEVYLVPTSIVYDQLHEVEAMTTEAYGAVKRPEDLRFLVRLARQQGERLGRAYLDFGEPLPLRKRLQEMRADKSGTGSEIERIALDVEHRINRATPVTPTAVVSLALLGADRSLSISEVLATVRPLASYIAARNWAVAGAADLTNRSTIRWTLHQMVASGVVSVYDAGTEAVWGIGEDQHLVAAFYRNTAIHILVDRAVAELALLAAAETTTNGSVSPATVRDEALSLRDLLKFEFLFSGRAQFEKDLANEVLLIGSVVDTSKPAAAADVWRLLESADVLLAHLVLRPFLDAYHIVADRLAAHEDDSFDEEGFLAECLQVGKQWELQRNIASAESRSMELFKTALRLARHRELVDGADATDIAKRRQQFADEIATATRRVNTIAELARRQEGHHHHHH | soluble
MSLGSIKDNLSEIRNKIDKAAKKVDRDSKEITLLAVTKTVDVDLVNEAMREGITSVGENKPQELARKYDIIGDKLNWHLIGTLQTNKVKYIIDKVCMIHSLDRIALCEEIQKRAEQINREIDCLVQVNISKEESKHGLDREEVVDFVKEVSEKYKNIKIKGLMTMAPFIEDEDEIRGVFKGLKDLSKQIKELNIPNVGMDVLSMGMSHDYEIAIEEGATIVRVGTSIFGERNYNKEGHHHHHH | soluble
MSLGSVFRHIEGGMLFPQGSVTCIGAFDGLHLGHRALVRHALQRATALHLPTVALSFEPLPREYFASTTPPPRLTLTRAKIQGLHRFGADSVGLLRFDSRLASMSPQTFVERVLLGRLGVREVLIGPQFRFGHQRSGDIALLQRLGLEHGFTATEIPPLHLNNERISATKIRALLAAGDFAHAAELLGRPYMIGGRVVRGQQLGSTLGYPTANLRFPHPIALSGIYATWVHGIFEQPWPSVSSFGTRPTVAGVEPLLEVHLFDFHSDLYGRRIDVEFIAKLRDEETFPDLHTMTTQIHRDAQQARHILSEHRLRAEGHHHHHH | not soluble
MSLGTLWWNGTFFTMVHEGDQVEAVFTEDGKIVAIGTAEELRQRYSTRINQEMNCDGAYVYPGFVDSHLHMIGHGEKLLRLDLSTVMNAEDMREKLMERVALTEEGDWVTAEGWNENNFPDQKIFHRNELDEIAPNHPMILTRVCRHAILVNSKALQLAGISKDTTDPPGGRIVRDELGEPTGYLLDTAQELVKRVAPSVSAAYLERALAAAVDDMVAKGLVGGHTEDLGYYLGFNQTFATFQRVIDGNTRRFRAHLLVHHEVIDDMIKAGYCKGPVGEWLEFGAMKIFADGAFGGRTALLSEPYCDAPTTSGVAIHTQEQLTNLIKKARQYKLPVAIHTIGDEALRMAITSIEAHPVTEGRDRLIHTQVTPPSLVERMKKLKVILDIQPAFVPADFPWVEERLGNERLSYSFAWKTLLRSGMALAGGSDAPIEEVDPLYGIYAAVARKKPTDQHEGYLPEEKLTRYEALQLYTTGSAYAIEREHERGNIRPGYVADFTMLNRNLFTCREEELLTTRVEKTVIGEAIVFQAKGIITITTDPNSSSVDKLAAALEHHHHHH | soluble
MSLGYKQIRDVSVLCDFAANCTLSLNPGTGENAPGIGLYRSSKADSIPELRLSFSEQMPKTGKLEILVDGKPELDTNIAALKVRNNELVYVDEAGVAKLIGAMKNGQKLQLKLADKVSGYSLSGFVGGLIYLDEQQARDGTVAALQVKGTKPAPAAPDITLIETVEQIPEGIRKDFSDDAATCGGASPESFRLAGGFVTKIADGLNLVGLPCGAPGAYNQPYVFYSRYENRIVPVSLPVISDDGPTTTDSAWNIDWNNRTRTLTGFFKGRGIGDCGTYDVWKAVDSGEGRVSFVLKEERAKGDCDGNYAGGPQNWPASWPPKTKEGHHHHHH | soluble
